Measurements reported in the nanobody polyreactivity screen of Harvey et al. (2022).

Experiment: yeast display, Sf9 membrane polyspecificity reagent, FACS + sequencing; frameworks hold sequencing errors
In short: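 Sorting gates, low and high (top ~1%), were placed on anti-HA fluorescence to track expression and on streptavidin fluorescence to track reagent binding. A clone's polyreactivity label is taken from the gate it came out of. The reagent was 10% biotinylated, detergent-solubilized Sf9 membrane, applied for 1 hour at 4 °C to galactose-induced yeast display cells.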
For “QVQLVESGGGLVQAGGSLRLSCAASGSTFGRNAMGWYRQAPGKERELVAAITASGGTTYYADSVKGRFTISRDNAMNTVYLQMNSLKPEDTAVYYCARAGHFSFKYDYWGQGTQVTVSS”, the “polyreactivity (PSR sort gate)” value was “low polyreactivity”. In the case of “QVQLVESGGGLVQAGGSLRLSCAASGSTFGRNAMGWYRQAPGNERELVAAISKRGGSTYYADSVKGRFTISRDNAKNTVYLQMNSLKPEDTAVYYCAKDVEGLGRRYRWYNYWGQGTQVTVSS”, the “polyreactivity (PSR sort gate)” value was “high polyreactivity”. In the case of “QVQLVESGGGLVQAGGSLRLSCAASGSTFGRYAKGWYRQAPGKERQLVAAISSSGVTTYYADSVKGRFTISRDNAKNSVYLQINSLKPEDTAVYYCSQTYKYHRWITKYGYWGQGTQVTVSS”, the “polyreactivity (PSR sort gate)” value was “high polyreactivity”. In the case of “QVQLVESGGGLVQAGGSLRLSCAASGSTFGRYAMGWYRQAPGKERELVAAISRGTTTNYADSVKGRFTIARDNAKNTVYLQMNSLKPEDTAVYYCAADQPSKRYYSWGQGTQVTVSS”, the “polyreactivity (PSR sort gate)” value was “low polyreactivity”. With “QVQLVESGGGLVQAGGSLRLSCAASGSTFGRYAMGWYRQAPGKERELVAAISRGTTTNYADSVKGRFTISRDNAKNTVYLQMNILKPEDTAVYYCAAQTDSVESDYWGQGTQVTVSS” the “polyreactivity (PSR sort gate)” value was “low polyreactivity”. For “QVQLVESGGGLVQAGGSLRLSCAASGSTFGRYAMGWYRQAPGKERELVAAISRRGASTYYADSVKGRFTISRDNAKNTVYLQMNSLKPEDTAVYYCATGYPIDLGREFDYWGQGIQVTVSS”, the “polyreactivity (PSR sort gate)” value was “high polyreactivity”. In the case of “QVQLVESGGGLVQAGGSLRLSCAASGSTFGRYVMGRYRPAPGKERELVAAISGSGGSTYYADSVKGRFTISRDNAKNTVYLQMNSLKPEDTAVYYCAARVAHYEYYWGQGTQVTVSS”, the “polyreactivity (PSR sort gate)” value was “high polyreactivity”. In the case of “QVQLVESGGGLVQAGGSLRLSCAASGSTFGSNAMGWYREAPGKERELVAAIDANGGSTYYADSVKGRFTISRDNAKNTVYLQMNSLKPEDTAVYYCAAAGYWYYYVPNDYWGQGTQVTVSS”, the “polyreactivity (PSR sort gate)” value was “low polyreactivity”. With “QVQLVESGGGLVQAGGSLRLSCAASGSTFGSNAMGWYRQAPGKEREFVAAISRRGGSTYYADSVKGRFTISRDNAKNTVYLQMNSLKPEDTAVYYCAADYISLREEDYWGQGTQVTVSS” the “polyreactivity (PSR sort gate)” value was “high polyreactivity”. In the case of “QVQLVESGGGLVQAGGSLRLSCAASGSTFGSNAMGWYRQAPGKERELVAAIRGIVGSTYYADSVKGRFTISRDNAKNTVYLQMNSLKPEDTAVYYCNKAEVSTYYQTRSTYGGYDYWGQGTQVTVSS”, the “polyreactivity (PSR sort gate)” value was “low polyreactivity”. For “QVQLVESGGGLVQAGGSLRLSCAASGSTFGSNAMGWYRQAPGKERELVAAISWTGGSTYYADSVKGRFTISRDNAKYTVYLQMKSLKPEDTAVYYCNAYGYGYPLYRYDYWGQGTQVTVSS”, the “polyreactivity (PSR sort gate)” value was “low polyreactivity”. With “QVQLVESGGGLVQAGGSLRLSCAASGSTFGSNAMGWYRQEPGKERELVAAITGGGTTSYADSVKGRFTISRDNAKNTVYLQMNSLKPEDTAVYYCNVLFADKSDYWGQGTQVTVSS” the “polyreactivity (PSR sort gate)” value was “low polyreactivity”. In the case of “QVQLVESGGGLVQAGGSLRLSCAASGSTFGSYAMGWYRQAPGKERELVAAISGGGSTYYADSVKGRFTISRDNAKNTVYLQMNSLKPEDTAVYYCNAYWKYWRTNGPGTKYNYWGQGTQVTVSS”, the “polyreactivity (PSR sort gate)” value was “high polyreactivity”. With “QVQLVESGGGLVQAGGSLRLSCAASGSTFGSYAMGWYRQAPGKERELVAAISTRGGRTRYADSVKVRFTISRDNAKNTVYLQMNSLKPQDTAVDYCATRIGSRVYNVSGYYRKDDYWGQGTQVTVSS” the “polyreactivity (PSR sort gate)” value was “high polyreactivity”. In the case of “QVQLVESGGGLVQAGGSLRLSCAASGSTFGSYAMRWYRQAPGKERELVAAITASGGSTYYADSVKGRFTISRDNAKNTVYLQMNSLKPEDTAVYYCAADTTYIPLSIEYDYWGQGTQVTVSS”, the “polyreactivity (PSR sort gate)” value was “low polyreactivity”. With “QVQLVESGGGLVQAGGSLRLSCAASGSTFGSYAMVWYRQAPGKERELVADISSRGASTYYADSVKGRFTISRDNAKNTVYLQMNRLKPEDTAVYYCARDVYIWYGYGYFPEYEYWGQGTQVTVSS” the “polyreactivity (PSR sort gate)” value was “low polyreactivity”. In the case of “QVQLVESGGGLVQAGGSLRLSCAASGSTFGSYGMGWYRQAPGKERELVAVITYSGDRTYYADSVKGRFTISRDNAKNTVYLQMNSLKPEDTAVYYCAADRSYRVSEYDYWGQGTQVTVSS”, the “polyreactivity (PSR sort gate)” value was “low polyreactivity”. With “QVQLVESGGGLVQAGGSLRLSCAASGSTFGSYTKGWSRPAPGQERELVAAINWSGGNTYYADSVKGRFTISRDNAKNTVYLQMTSLKREDTAVYYCAAAFYIYGVEGDYWGQGTQVTVSS” the “polyreactivity (PSR sort gate)” value was “low polyreactivity”. In the case of “QVQLVESGGGLVQAGGSLRLSCAASGSTFGSYTMGWYRQAPGKEREFVAAIRWIGGSTYYADSVKGRFTISRDNAKNTVYLQMNSLKPEDTAVYYCNAKRRKHGYYYWGQGTQVTVSS”, the “polyreactivity (PSR sort gate)” value was “high polyreactivity”. In the case of “QVQLVESGGGLVQAGGSLRLSCAASGSTFGTNAMGWYRQAPGKERELVAAITRGGNTYYADSVKGRFTISRDNAKNTVYLQMNSLKTEDTAVYYCNTYTRASRFDYWGQGTQVTVSS”, the “polyreactivity (PSR sort gate)” value was “high polyreactivity”. In the case of “QVQLVESGGGLVQAGGSLRLSCAASGSTFGTYAMGCYRQAPGKARELVAAISGRGTSTYYADSVKGRFTISRDNAKITVYLQMNSLKPEDTAVYYCNAVFWSRSSHFDYWGQGTQVTVSS”, the “polyreactivity (PSR sort gate)” value was “high polyreactivity”. In the case of “QVQLVESGGGLVQAGGSLRLSCAASGSTFGTYAMGWYRQAPGKERELVAAISSGDSTTYADSVKGRFTISRDNAKNTVYLQMNSLKPEDTAVYYCAARVPYKSDYWGQGTQVTVSS”, the “polyreactivity (PSR sort gate)” value was “low polyreactivity”. With “QVQLVESGGGLVQAGGSLRLSCAASGSTFGTYAMGWYRQAPGKERELVAAISSGGSTYYADSVKGRFTISRDNAKNTVYLQMNSLKPEDTAVYYCAAGYYWYVWGFGYWGQGTQVSVSS” the “polyreactivity (PSR sort gate)” value was “low polyreactivity”. For “QVQLVESGGGLVQAGGSLRLSCAASGSTFGTYAMGWYRQAPGKERELVAAISYRGGSTYYADSVKGRFTISRDNAKNTVYLQMNSLKPEDTAVYYCATRKYAATGYDYWGQGTQVTVSS”, the “polyreactivity (PSR sort gate)” value was “high polyreactivity”. With “QVQLVESGGGLVQAGGSLRLSCAASGSTFGTYAMGWYRQAPGKERELVAVISWSDGRTYYADSVKGRFTISRDNAKNTVYLQMISLKPEDTAVYYCNARLDTFVPRYGYWGQGTQVTVSS” the “polyreactivity (PSR sort gate)” value was “high polyreactivity”. For “QVQLVESGGGLVQAGGSLRLSCAASGSTFGVNAMGWYRPAPGKERELVAAISRSGTSTYYADSVKGRFTISRDNAKNTVYLLMNSLKPEDTAVYYCAAQYFSGYHKYGYWGQGTQVTVSS”, the “polyreactivity (PSR sort gate)” value was “high polyreactivity”. With “QVQLVESGGGLVQAGGSLRLSCAASGSTFGVNAMGWYRQAPGKEREFVAAITSSSGSTYYADSVKGRFTISRDNAKNTVYLQMNSLKPEDTAVYYCNKRYIQLYDYWGQGTQVTVSS” the “polyreactivity (PSR sort gate)” value was “low polyreactivity”. In the case of “QVQLVESGGGLVQAGGSLRLSCAASGSTFGVYAMGWYRQAPGKERELVAAINYSGRTYYADSVKGRFTISRDNAKNTVYLQMNSLKPEDTAVYYCAADWYWSRHEYEYWGQGTQVTVSS”, the “polyreactivity (PSR sort gate)” value was “high polyreactivity”. For “QVQLVESGGGLVQAGGSLRLSCAASGSTFGWYAMGWYREAPGKERELVAAISWLGTSTYYADSVKGRFTISRDNAKNTVYLQLNSLKPEDTAVYFCAADAYDVYYAYYYWGQGTQVTVSS”, the “polyreactivity (PSR sort gate)” value was “high polyreactivity”. For “QVQLVESGGGLVQAGGSLRLSCAASGSTFGWYAMGWYRQAPGKESELVAAIRTSGGDSTYYADSVKGRFTISRDNAKNTVYLQMNSLKPEDTAVYYCAKTVWWYYRYPFDYWGQGTQGTVSS”, the “polyreactivity (PSR sort gate)” value was “low polyreactivity”. With “QVQLVESGGGLVQAGGSLRLSCAASGSTFGYNAMGWYRPAPGKERELVARITSSGGSTYYADSVKGRFTISRDNAKISVYLQMNSLKPEDTAVYYCAAGYPYRAVYRYYYWGQGTQVTVSS” the “polyreactivity (PSR sort gate)” value was “high polyreactivity”. In the case of “QVQLVESGGGLVQAGGSLRLSCAASGSTFGYNAMGWYRQAAGKERELVAGISSGGSTNYADSVKGRFTISRDNAKNTVYLQMNSLKPEDTAVYYCAAYKYDHRVDTGYDYWGQGTQVTVSS”, the “polyreactivity (PSR sort gate)” value was “low polyreactivity”. With “QVQLVESGGGLVQAGGSLRLSCAASGSTFGYNAMGWYRQAPGKEREFVATIRYSGDRTYYADSVKGRFTISRDNAKNTVYLQMNSLKPEDTAVYYCAADLYYNSYGRYGRYYYWGQGTQVNVSS” the “polyreactivity (PSR sort gate)” value was “high polyreactivity”. For “QVQLVESGGGLVQAGGSLRLSCAASGSTFGYNAMGWYRQAPGKERELVAAISFSSGRTYYADSVKGRFTISRDNAKNTVYLQMNSLKPEDTAVYYCAALQYRRRPYGAVERYDYWGQGTQVTVSS”, the “polyreactivity (PSR sort gate)” value was “high polyreactivity”. For “QVQLVESGGGLVQAGGSLRLSCAASGSTFGYNAMGWYRQAPGKERELVAAISSSGGSTYYADSVKGRFTISRDNAKNTVYLQMNSLKPEDTAVYYCATEFFQYYSTKGYDYWGQGTQVTVSS”, the “polyreactivity (PSR sort gate)” value was “low polyreactivity”. For “QVQLVESGGGLVQAGGSLRLSCAASGSTFGYNAMGWYRQAPGKERELVAAITRSGGSTDYADSVKGRFTISRDNAKNTVYLQMNSLKPEDTAVYYCAADGDHPWWSQYDYWGQGTQVTVSS”, the “polyreactivity (PSR sort gate)” value was “low polyreactivity”. For “QVQLVESGGGLVQAGGSLRLSCAASGSTFGYNARGWYRQAPGKEREFVARIRSSGSTTYADSVKGRFTISRDNAKNTVYLQMNSLKPEDTAVYYCAARRLYGYSPWVRFGSYDYWGQGTQVTVSS”, the “polyreactivity (PSR sort gate)” value was “high polyreactivity”. In the case of “QVQLVESGGGLVQAGGSLRLSCAASGSTFGYNDMGRYRQAPGKERELVADSSYSGDSTYSADSVKGRFTISRDNAQNTVYLQMNSLKPEDTAVYYCKADRFADYDDWGQGTQVTVSS”, the “polyreactivity (PSR sort gate)” value was “low polyreactivity”. For “QVQLVESGGGLVQAGGSLRLSCAASGSTFGYNDMGWYRQAPGKERELVAAIDTGVSTNYADSVKGRFTISRDNAKNTVYLQMNSLKPEDTAVYYCAKSGSAYWHSGWSVGFDYWGQGTQVTVSS”, the “polyreactivity (PSR sort gate)” value was “low polyreactivity”. With “QVQLVESGGGLVQAGGSLRLSCAASGSTFGYYAMGCYRQAPGKERELVAAITSGGSTKYADSVKGRFTISRDNAKNTVYLQMNSLKPEDTAVYYCATSRYFGYGFWGQGTQVTVSS” the “polyreactivity (PSR sort gate)” value was “low polyreactivity”. With “QVQLVESGGGLVQAGGSLRLSCAASGSTFGYYAMGWSRQAPGKERELVAVITYSGGSTYYADSVKGRFTISRDNAKNTVYLQMNSLKPEDTAVYYCAAVIGVWYYYTYDYWGQGTQVTVSS” the “polyreactivity (PSR sort gate)” value was “low polyreactivity”.
